In patent US20260132200A1 (Regeneron, published 2026):
Where a chain is given by its changes, count along the chain named.

T1: human CD3 expressed on cells (Jurkat, a CD3+ human T-cell line; human T cells) (human, UniProt P07766 23-126; P04234 22-100)
T1 chain 1: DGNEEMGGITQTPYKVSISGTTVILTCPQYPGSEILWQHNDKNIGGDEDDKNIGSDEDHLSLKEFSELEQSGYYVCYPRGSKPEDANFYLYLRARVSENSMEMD
T1 chain 2: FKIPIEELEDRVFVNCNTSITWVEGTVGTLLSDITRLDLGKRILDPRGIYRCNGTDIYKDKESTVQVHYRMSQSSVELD

T2: Soluble heterodimeric CD3 protein (hCD3-epsilon/hCD3-delta) with either a human Fc tag (hFcΔAdp/hFc) or a … (human, UniProt P07766 23-126; P04234 22-100)
T2 construct: Soluble construct; not shown: Fc tag: human (hFcΔAdp/hFc)
T2 chain 1: T1 chain 1
T2 chain 2: T1 chain 2

T3: human CD20 expressed on Raji cells (CD3-, CD20+ human B-cell line) (human, UniProt P11836 1-297)
T3 sequence: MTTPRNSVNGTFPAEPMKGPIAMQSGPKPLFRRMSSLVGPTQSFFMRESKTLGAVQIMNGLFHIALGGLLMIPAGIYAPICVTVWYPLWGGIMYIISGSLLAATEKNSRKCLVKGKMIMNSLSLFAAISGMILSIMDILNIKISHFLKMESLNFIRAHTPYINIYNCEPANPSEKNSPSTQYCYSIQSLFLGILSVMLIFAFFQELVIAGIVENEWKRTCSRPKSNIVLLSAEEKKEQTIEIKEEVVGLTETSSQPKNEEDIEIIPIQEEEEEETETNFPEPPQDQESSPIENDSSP

B1: H1H5772S (antibody, human IgG1, V domains shown)
VH: QVQLVESGGGLVQPGRSLRLSCAASGFSFDDYAMHWVRQAPGQGLEWVSGISWNGGSRDYADSVKGRFTISRDNARNSLFLQMNSLFTEDTALYYCAKDKSGYGSYFYGMDVWGQGTTVTVSS
VL: EIVLTQSPGILSLSPGDRATLSCRASQSIRNIYLAWYQQKPGQAPRLLIHGASTRATGIPDRFSGSGSGTDFTLTISRLEPEDFAVYYCQQRVSSPYTFGQGTKLEIK
B2: H1H5781P (antibody, human IgG1, V domains shown)
VH: EVQLVESGGGLVQPGRSLRLSCAASGFTFDDFTMHWVRQAPGKGLEWVSDISWNSGSIDYADSVKGRFTISRDNARNSLFLQMSSLRTEDTASYYCIKDKSGYGSYNYGLDVWGQGTTVTVSS
VL: B1 VL with I10T, I29V, R30S, N31S, V86L, Q90H
B3: H1H5782P (antibody, human IgG1, V domains shown)
VH: B1 VH with Q1E, S28T, Q43K, G55S, R58K, A75T, F87R, Y106F, F107Y
VL: not shown
B4: H1H5780P (antibody, human IgG1, V domains shown)
VH: EVQLVESGGGLVQPGRSLRLSCAASGFTFDDYAMHWVRQAPGKGLEWVSGISWNGGSKDYADSVKGRFTISRDNTRNSLSLQMNSLRIEDTALYYCAKDKSGYGSFYYGLDVWGQGTTVTVSS
VL: B1 VL with I10T, N31S
B5: H2M3547N (antibody, V domains shown)
VH: EAQLVESGGGLVQPGRSLRLSCTTSGFTFDDYTMHWVRQAPGKGLEWISDISWNGGTKGYADSVKGRFTISRDNAKNSLYLQMDSLRGEDTALYYCVKDKSGYGHFYFGLDVWGQGTTVTVSS
VL: DIQMTQSPSSLTASVGDRVTFTCRASQSISRHLSWYQQKPGKAPKLLIYAASSLESGVPSRFSGSGSGTDFTLTISSLHPEDFATYYCQQSYSNPPITFGQGTRLEIK
notes: mouse IgG2 Fc, human variable regions
B6: H1H5786B (antibody, human IgG1, V domains shown)
VH: QVQLVESGAEVKKPGASVKVSCKTSGYTFTGYYMHWIRQAPGQGLEWMGWINPKSGGTNYAQKFQGRVTMTRDTSISTAYMELSRLRSDDMAVYYCARMGDGAVFDFWGQGTLVTVSS
VL: AIQMTQSPSSLSASVGDRVTITCRASQRISSFLNWYQQKPGKAPKLLIYTASNLQNGVPSRFSGSGSGTDFTLTISSLQPEDFATYYCQQSYRTPLTFGGGTKVEIKR
B7: H1H5798B (antibody, human IgG1, V domains shown)
VH: QVQLVQSGGGLVKPGGSLRLSCAASGFTFSSYDMSWVRQAPGKGLEWVSYISSSGNTIHYADSVKGRFTISRDNSKNSLYLQMNSLRAEDTAVYYCAKAGPATVTRRYYYYYGLDVWGQGTTVTVSS
VL: B6 VL with A1D, Q3V, G16R, F32Y, Y36F, L46V, N53S
B8: H1H5790B (antibody, human IgG1, V domains shown)
VH: EVQLVESGGGVVQPGRSLRLSCAASGFTFSYYGMHWVRQAPGKGLEWVAVISFDGKNKYYADSVMGRFTISRDNSKNTLYLQMNSLRAEDSAVFFCARSYDILTGYGAGYSYHYGMDVWGQGTTVTVSS
VL: B6 VL
B9: H1H5801B (antibody, human IgG1, V domains shown)
VH: QVQLVQSGGGVVQPGGSLRLSCAASGFTFDDYAMHWVRQAPGKGLEWVSLISGDGGSTYYADSVKGRFTISRDNSKNSLYLQMNSLRTEDTALYYCAKDDSSSSWYYYYYGMDVWGRGTTVTVSS
VL: B6 VL with A1D, F32Y, L46V, Y49S, T50V, N53S, N56S, T85S, R93N
B10: H1H5795B (antibody, human IgG1, V domains shown)
VH: B6 VH with Q1E, T28S, T30I, M34I, I37M, G57V, K63R, R87K, M91T, Y95F
VL: B6 VL with A1D, M4L, A43V, S65T, E105D
B11: H1H5792B (antibody, human IgG1, V domains shown)
VH: QVQLVESGGGVVQPGRSLRLSCAASGFTFSSYGMHWVRQAPGKGLEWVSTISFDGSNKYYADSVKGRFTISRDNSKNTLYLQMNSLRPEDTAVYYCAKGGGTSGSYFYYGMDVWGQGTTVTVSS
VL: B6 VL with V104L
B12: H1H5791B (antibody, human IgG1, V domains shown)
VH: B6 VH with F29L, T30S, I37M, G57V, G66D, T69A, M91T, G109A
VL: B6 VL with A1D, M4L, V104L
B13: H1H5793B (antibody, human IgG1, V domains shown)
VH: QVQLVQSGTEVKKPGASMKVSCKASGYTFTGYYIHWVRQAPGQGLEWMGWINPNSDVTKYAQKFQGRVTLTRDTSISAAYIDLSRLRSDDTAIYYCARMGDGAVFDYWGQGTLVTVSS
VL: DIQLTQSPSSLSASVGDRVTITCRASQRISSYLNWYQQKPGKAPKVLISVASSLQSGVPSRFSGSGFGTDFTLTISSLQPEDSASYYCQQSYNTPLTFGGGTKLEIKR
B14: H1H5797B (antibody, human IgG1, V domains shown)
VH: B13 VH with M18V, I34M, K59N, A78T
VL: B13 VL with L4M, F67S, S83F, L104V
B15: H1H5778P (antibody, human IgG1, V domains shown)
VH: EVQLVESGGGLVQPGRSLRLSCVASGFTFADFTMHWVRQAPGKGLEWVSGISWNSNSIDYADSVKGRFTISRDNAKKSLFLQMSSLRAEDTALYYCVKDRSGYSRFYYGMDVWGQGTTVTVSS
VL: EIVMTQSPATLSVSPGERAILSCRASQNINSNLAWYQQKPGQAPRLLIYGASTRATGVPARFSGSGSGTEFTLTIRSLQSEDFAVYYCQQYYNWPITFGHGTRLEIK
B16: BS3/20-007 (bispecific antibody, V domains shown)
VH 1: EVQLVESGGGLVQPGRSLRLSCVASGFTFNDYAMHWVRQAPGKGLEWVSVISWNSDSIGYADSVKGRFTISRDNAKNSLYLQMHSLRAEDTALYYCAKDNHYGSGSYYYYQYGMDVWGQGTTVTVSS
VH 2: DVQLVQSGAEVKKPGASVKVSCKASGYTFTRYTMHWVRQAPGQGLEWIGYINPSRGYTNYADSVKGRFTITTDKSTSTAYMELSSLRSEDTATYYCARYYDDHYCLDYWGQGTTVTVSS
VL: DIVLTQSPATLSLSPGERATLSCRASQSVSYMNWYQQKPGKAPKRWIYDTSKVASGVPARFSGSGSGTDYSLTINSLEAEDAATYYCQQWSSNPLTFGGGTKVEIK
B17: BS3/20-005 (bispecific antibody, V domains shown)
VH 1: B16 VH 1
VH 2: QVQLVESGGGVVQPGRSLRLACVASGFTFRSYGMHWVRQAPGKGLQWVAMIYYDGKNKYYADSVRGRFTISRDNSKNTLYLQMNNLRVEDTAMYFCARGPGYNWLDPWGQGTLVTVSS
VL: EIVMTQSPATLSVSPGERATLSCRASQRISSNLAWYQQKPGQAPRLLIYGASTRATGSPARFSGSGSGTDFTLTISSLQSEDVAVYYCQQHHNWPLTFGGGTKVEIK

Legend:
[1] = molecular target: T1, human CD3 expressed on cells (Jurkat, a …); assay: cell-based or functional assay
[2] = molecular target: T2, Soluble heterodimeric CD3 protein …; assay: SPR Biacore 25C antigen-capture
Procedure: Measurements were conducted on a T200 Biacore instrument.
In the antigen-capture format, heterodimeric CD3 protein was captured using a rabbit anti-mouse Fc or mouse anti-human Fc and the respective antibodies were injected over the captured antigen.
Kinetic association (kₐ) and dissociation (kd) rate constants were determined by processing and fitting the data to a 1:1 binding model using Scrubber 2.0 curve fitting software. Binding dissociation equilibrium constants (KD) and dissociative half-lives (t_{1/2}) were calculated from the kinetic rate constants as: KD (M)=kd/kₐ; and t_{1/2} (min) (ln 2/(60*kd). NT=not tested; NB=no binding observed.

[3] = molecular target: T3, human CD20 expressed on Raji cells …; assay: cell-based or functional assay
[4] = molecular target: T3, human CD20 expressed on Raji cells …; assay: cell-based or functional assay; remark: listed apart in the source
[5] = molecular target: T3, human CD20 expressed on Raji cells …; assay: FACS on Raji cells
Procedure: CD20×CD3 bispecific antibodies and Control constructs, as set forth in Example 1, were tested via FACS for their ability to bind to Jurkat (CD3+, CD20− human T-cell line), Raji (CD3−, CD20+ Human B-cell line), or cynomolgus PBMCs (“mkT cells”).
FACS data was acquired using the following protocol: Cells at 2×10⁵ per well were incubated with serially diluted antibodies for 30 min on ice. Post incubation, cells were washed and appropriate secondary (Jurkat, RAJI cells) or cocktail of secondary antibodies (for cyno PBMC) was added and incubated for an additional 30 minutes. After incubation, cells were washed, re-suspended in cold PBS containing 1% BSA and analyzed by flow cytometry on a BD FACS Canto II. Jurkat and Raji cells were gated by side and forward scatters, while cynomolgus T cells were also gated in a CD2+CD4+ population. The EC₅₀s for cell binding titration were determined using Prism software with values calculated using a 4-parameter non-linear regression analysis.

| Binder | U937 Cytotoxicity Human T-cells [M] (EC50) [1] | other results |
| --- | --- | --- |
| B1 | 6.89e-13 | – |
| B2 | 1.83e-12 | – |
| B3 | 5.18e-12 | – |
| B4 | 4.03e-12 | – |
| B5 | – | koff [2]: 1e-05 s⁻¹; kon [2]: 470000 M⁻¹ s⁻¹ |
| B6 | 6.1e-11 | – |
| B7 | 1.81e-10 | – |
| B8 | 8.71e-11 | – |
| B9 | 9.23e-11 | – |
| B10 | 6.74e-11 | – |
| B11 | 1.4e-10 | – |
| B12 | 8.01e-11 | – |
| B13 | 8.85e-11 | – |
| B14 | 5.76e-10 | – |
| B15 | 3.41e-13 | – |
| B16 | – | CDC EC50, Raji [3]: 2.62 nM; CDC EC50, Raji SCID1 [3]: 101 nM; CDC EC50, Raji SCID2 [3]: 8.83 nM; CDC EC50, Raji SCID3 [3]: 37.7 nM; CDC EC50, Raji SCID4 [3]: 140 nM; T-Cell Mediated Cytotoxicity EC50, Raji [3]: 0.00166 nM; T-Cell Mediated Cytotoxicity EC50, Raji SCID1 [3]: 0.00111 nM; T-Cell Mediated Cytotoxicity EC50, Raji SCID2 [3]: 0.000652 nM; T-Cell Mediated Cytotoxicity EC50, Raji SCID3 [3]: 0.000293 nM; T-Cell Mediated Cytotoxicity EC50, Raji SCID4 [3]: 0.00153 nM |
| B17 | – | Raji Cytotoxicity Human T-cells [M] (EC50) [4]: 1.95e-11 M; EC50 [5]: 81.7 nM |
